This passage reports IC50, EC50 and Kd results from patent publication US20220025060A1.

Like-named read-outs stand apart in the source and are kept apart here.

The target of experiment [1] is Fc-tagged human CD40 (h-CD40-Fc) recombinant protein (human) (UniProt P25942). The experiment in a line: hCD40/hCD40L blocking ELISA, competitor CD40L-his. In general terms: An ELISA detects its analyte on a solid surface through an enzyme-linked reagent.
Experiment [2] concerns the target His-tagged rhesus monkey CD40 (rhesus-CD40-his) recombinant protein (rhesus monkey) (UniProt F6SNI1). The experiment in a line: ELISA, Rhesus CD40-his coated.
The target of experiment [3] is human CD40 on HEK-Blue CD40L cells (HEK293 cells stably transfected with human CD40 gene) (human) (UniProt P25942). The experiment in a line: HEK293-CD40 cell-binding (so in the source).
Sequence of human CD40 on HEK-Blue CD40L cells (HEK293 cells stably transfected with human CD40 gene) (human) (P25942 21-277): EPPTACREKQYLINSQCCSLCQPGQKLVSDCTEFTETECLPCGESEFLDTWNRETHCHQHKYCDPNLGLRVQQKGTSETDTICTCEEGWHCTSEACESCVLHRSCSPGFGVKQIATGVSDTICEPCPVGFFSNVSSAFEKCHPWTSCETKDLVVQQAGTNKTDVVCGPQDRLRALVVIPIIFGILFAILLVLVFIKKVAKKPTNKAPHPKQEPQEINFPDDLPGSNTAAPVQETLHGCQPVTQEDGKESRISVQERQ
Experiment [4] shares this target. The experiment in a line: HEK293-CD40 cell-binding (so in the source). This is another data set of the same source.
The target in experiment [5] is His-tagged human CD40 (h-CD40-his) recombinant protein (human) (UniProt P25942). The experiment in a line: Biacore SPR, antibody captured by anti-human antibody, CD40 antigen as analyte, 1:1 model. (In general: In SPR one partner is held on a chip, and binding of the other changes the refractive index at the surface.)
Sequence of His-tagged human CD40 (h-CD40-his) recombinant protein (human) (P25942 21-193 limits assumed): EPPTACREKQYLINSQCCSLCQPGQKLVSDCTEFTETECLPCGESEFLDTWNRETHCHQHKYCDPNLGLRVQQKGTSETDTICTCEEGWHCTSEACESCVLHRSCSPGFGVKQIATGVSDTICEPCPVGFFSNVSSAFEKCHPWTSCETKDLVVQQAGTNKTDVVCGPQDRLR
The target in experiment [6] is Fc-tagged human CD40 (h-CD40-Fc) recombinant protein (human) (UniProt P25942). As to the kind of experiment: hCD40/hCD40L blocking ELISA, competitor CD40L-his. The source holds these as a separate data set.
Experiment [7] addresses His-tagged human CD40 (h-CD40-his) recombinant protein (human) (UniProt P25942). The experiment in a line: ELISA, human CD40-his coated.
Experiment [8] shares this target. As to the kind of experiment: ELISA, human CD40-his coated. This is another data set of the same source.

For orientation: IC50 means the concentration that inhibits the measured activity by half. By EC50 is commonly meant the midpoint of the concentration-response curve. The term Kd denotes the free concentration of one partner at which half of the binding sites on the other are occupied at equilibrium, for simple one-to-one binding.

Sequence of Pfizer control (hIgG4) (antibody) (VH): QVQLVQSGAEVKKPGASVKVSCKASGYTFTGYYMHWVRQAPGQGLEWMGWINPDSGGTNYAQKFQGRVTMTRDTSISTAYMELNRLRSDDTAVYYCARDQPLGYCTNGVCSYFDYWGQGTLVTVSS
Sequence of Pfizer control (hIgG4) (antibody) (VL): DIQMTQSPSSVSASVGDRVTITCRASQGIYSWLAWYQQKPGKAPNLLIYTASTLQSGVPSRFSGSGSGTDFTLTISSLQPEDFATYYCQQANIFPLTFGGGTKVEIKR
Sequence of Fc-tagged human CD40 (h-CD40-Fc) recombinant protein (human) (P25942 21-193 limits assumed): as the sequence (P25942 21-193 limits assumed) above

As to Alligator control (hIgG1) (antibody), the half-inhibitory concentration (IC50) in experiment [1] was found to be 0.723 µg/mL; in experiment [6], 0.647 µg/mL. In addition, the EC50 in experiment [2] came out at 1.24 ng/mL; in experiment [3], 1.36 µg/mL; in experiment [4] it was 0.397 µg/mL; in experiment [7], 1.29 ng/mL; in experiment [8] it was 3.29 ng/mL. Besides, in experiment [5], the Kd came out at 166 nM.
Consider Pfizer control (hIgG4) (antibody), for which the values for the EC50 in experiment [2], in experiment [7] and in experiment [8] were 3.56 ng/mL, 3.98 ng/mL and 5.63 ng/mL, respectively. Further, in experiment [5], the Kd came to 20.4 nM.
